The results in this text go back to doi:10.1101/2020.06.30.176701 (bioRxiv, 2020).

Test in all cases: high-speed atomic force microscopy
Assay [1] has as its target T1, archaeal ribosomal P-stalk complex aP0•(aP1•aP1)3 (Pyrococcus horikoshii, UniProt O74109 1-342; O57705 1-108).
T1 sequence (looked up) 1: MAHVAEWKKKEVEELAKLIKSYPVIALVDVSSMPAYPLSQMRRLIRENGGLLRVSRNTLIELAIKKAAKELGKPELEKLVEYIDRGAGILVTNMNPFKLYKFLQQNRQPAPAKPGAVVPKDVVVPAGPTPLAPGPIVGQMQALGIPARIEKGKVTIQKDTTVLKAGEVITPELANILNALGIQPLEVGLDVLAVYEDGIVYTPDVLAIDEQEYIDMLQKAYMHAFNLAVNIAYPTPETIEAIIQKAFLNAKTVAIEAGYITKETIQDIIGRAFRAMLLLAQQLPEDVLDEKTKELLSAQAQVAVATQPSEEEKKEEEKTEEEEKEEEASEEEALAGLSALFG
T1 sequence (looked up) 2: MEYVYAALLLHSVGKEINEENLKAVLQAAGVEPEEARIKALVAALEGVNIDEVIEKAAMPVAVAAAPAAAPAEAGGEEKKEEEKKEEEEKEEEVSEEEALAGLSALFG

Assay [2] deals with T1, archaeal ribosomal P-stalk complex …. This is another data set of the same source.
Assay [3] shares this target. This is another data set of the same source.
For assay [4] the target is unchanged. The source holds these as a separate data set.
Assay [5] has the same target. This is another data set of the same source.

Read-outs that look alike come from different tables or passages of the source.

B1: archaeal elongation factor 1A (aEF1A) of Pyrococcus furiosus (natural protein, UniProt Q8U152 1-428, looked up)
chain: MPKDKPHVNIVFIGHVDHGKSTTIGRLLYDTGNIPEQIIKKFEEMGEKGKSFKFAWVMDRLKEERERGITIDVAHTKFETPHRYITIIDAPGHRDFVKNMITGASQADAAVLVVAATDGVMPQTKEHAFLARTLGIKHIIVAINKMDMVNYNQKRFEEVKAQVEKLLKMLGYKDFPVIPISAWEGENVVKKSDKMPWYNGPTLIEALDQIPEPEKPVDKPLRIPIQDVYSIKGVGTVPVGRVETGKLRVGEVVIFEPASTIFHKPIQGEVKSIEMHHEPLEEALPGDNIGFNVRGVSKNDIKRGDVAGHTTNPPTVVRTKDTFKAQIIVLNHPTAITVGYSPVLHAHTAQVPVRFEQLLAKLDPKTGNIVEENPQFIKTGDAAIVILRPMKPVVLEPVKEIPQLGRFAIRDMGMTIAAGMVISIQRGE
With B1, the “fold distribution near the P-stalk relative to the opposite control area” value in assay [1] was 4.2 fold; in assay [2] it was 2.6 fold.

B2: archaeal elongation factor 2 (aEF2) of Pyrococcus furiosus (natural protein, UniProt P61877 1-732, looked up)
chain: MGRREEMIAKIKELMLQPERIRNIGIAAHIDHGKTTLSDNLLAGAGMISEELAGKQLVLDFDEQEQARGITINAANVSMVHNYEGKDYLINLIDTPGHVDFGGDVTRAMRAIDGVIIVVDAVEGVMPQTETVVRQALREYVKPVLFINKVDRLIRELKLTPQQMMERFSKIIMDVNRLIQRYAPEEYKKKWMVRVEDGSVAFGSAYYNWALSVPFMQRTGVKFNEIIDLTLKGDNKTLRQRAPLHVVVLDMVVRHLPSPIEAQKYRIPHLWQGDINSKIGQAMLNCDPKGKMVMVITKIIIDKHAGEVATGRVWSGTVRSGQEVYLINSKRKGRIQQVGIYMGPERINMEAVPAGNIVAVTGLRDAMAGETVAEEQIEPFEALHYVSEPVVTVAIEAKNVKDLPRLIEALRQLAKEDPTLHVKIDEETGQHLLSGMGELHLEVKLYKLQKDWGIEVDVSEPIVVYRESITKPSPIVEGKSPNKHNRFYVVVEPMPDEIYQAIKEGIIPEGRVKDPKAVAKKLAELGMDYDIARGVVDIYNGNMFLDNTKGIQYLNEVMDLLIDGFHQAMDEGPLAKEPVMKVIVRLVDAQVHEDNVHRGPAQIYPAIRTAIHCAMMKAGPVLYEPYQKVIINIPYEYMGAVSREISQRRGQLIDMRQEGEVMTIIAEAPVAEMFGFAGAIRSATSGRALWSTEHAGFKRVPNELAQQIIRQIRQRKGLDPNPPTEKDVCPLF
In the case of B2, in assay [3], the “stoichiometry N” value was ≤ 7 aEF2 molecules per P-stalk. Further, the “fold distribution near the P-stalk relative to the opposite control area” value in assay [4] was 6.6 fold; in assay [5], around 4.3 fold.
